Data from patent US20200223888A1 (ARCH BIOPARTNERS, published 2020).
Ends that are not written are not given here. * marks the point of attachment. Biotin = O=C1N[C@H]2[C@H](CS[C@H]2CCCCC(=O)*)N1

T1: human membrane dipeptidase (DPEP-1), wild type, expressed on transfected cells (human, UniProt P16444 17-385)
T1 construct: whole, on cells; also called human DPEP1; hDPEP1
T1 sequence (looked up): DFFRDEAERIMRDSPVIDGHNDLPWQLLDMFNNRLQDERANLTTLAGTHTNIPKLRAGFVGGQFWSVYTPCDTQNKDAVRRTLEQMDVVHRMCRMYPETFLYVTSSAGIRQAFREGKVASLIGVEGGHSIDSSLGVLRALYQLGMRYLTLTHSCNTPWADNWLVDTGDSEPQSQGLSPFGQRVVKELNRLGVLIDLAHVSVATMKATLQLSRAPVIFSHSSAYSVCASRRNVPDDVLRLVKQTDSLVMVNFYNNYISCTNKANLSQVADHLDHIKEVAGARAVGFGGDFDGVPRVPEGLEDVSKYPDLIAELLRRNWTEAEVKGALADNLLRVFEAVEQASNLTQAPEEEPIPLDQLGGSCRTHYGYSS

T2: LSALT peptide (LSALTPSPSWLKYKAL)
T2 chain: LSALTPSPSWLKYKAL

B1: phage hit displaying KHMHWHPPALNT (Ph.D.-12 library) (peptide)
peptide: KHMHWHPPALNT
notes: The phage coat protein part is not described; also called neogenin-mimetic peptide phage hit; phage peptide tentatively identified as corresponding to Neogenin
B2: human membrane dipeptidase (DPEP-1), wild type, expressed on transfected cells (protein)
chain: T1 sequence (looked up)
B3: LSALT peptide (LSALTPSPSWLKYKAL) (peptide)
peptide: LSALTPSPSWLKYKAL
modifications: also: Alexa-488 or biotin label or agarose support in some assays, site not given here
notes: Synthetic peptide from a phage display hit; The label or support differs between assays; also called Metablok; Native

What was measured:
[1] = molecular target: T1, human membrane dipeptidase (DPEP-1), …; test: phage (10^8 pfu) on DPEP1 transfected Cos 1 cells, anti-M13 serum, fluorescence imaging (FIG. 19B)
Protocol: In FIG. 19B, Cosl cells were transiently transfected with plasmids corresponding to human DPEP1 or DPEP2 (Lipofectamine 2000) 24 hrs prior to plating on collagen-coated (PureCol; Type I collagen from bovine tendon) coverslips. One day later cells were incubated with 10⁸ pfu test phage, which were then detected by anti-M13 rabbit serum (in house) with anti-rabbit Alexa 568 secondary. After fixing and counterstaining with DAPI, coverslips were fluorescently imaged.

[2] = molecular target: T2, LSALT peptide (LSALTPSPSWLKYKAL)
[3] = molecular target: T3, rat membrane dipeptidase (DPEP-1), expressed on transfected Cos cells (rat, UniProt P31430 17-384); test: Alexa-488 peptide on transfected Cos-7 cells, flow cytometry (FIG. 9)
T3 construct: whole, on cells; also called renal rat membrane dipeptidase (DPEP-1); rat DPEP-1
Protocol: Cells were washed and flow cytometry was performed to assess binding. Shown are single parameter histographs for each experimental condition (n=2).

[4] = molecular target: T1, human membrane dipeptidase (DPEP-1), …; test: Alexa-488 peptide on transfected Cos-1 cells, immunofluorescence microscopy (FIG. 5B)
Protocol: Cells were blocked with FBS/NBSA/Tween in PBS for 30 minutes on ice.

[5] = molecular target: T1, human membrane dipeptidase (DPEP-1), …; test: biotinylated peptide at 5 uM on fixed DPEP1-transfected HEK cells, Alexa 568-streptavidin, fluorescence microscopy
[6] = molecular target: B3; test: phage display biopanning against LSALT-agarose, three rounds, plaque sequencing (FIG. 20A)
Excerpt: Each plaque was amplified separately in liquid bacterial host culture. […] DNA inserts were translated to the expected protein and sorted to assess the number of repeating sequences.

T3 sequence (P31430 17-384): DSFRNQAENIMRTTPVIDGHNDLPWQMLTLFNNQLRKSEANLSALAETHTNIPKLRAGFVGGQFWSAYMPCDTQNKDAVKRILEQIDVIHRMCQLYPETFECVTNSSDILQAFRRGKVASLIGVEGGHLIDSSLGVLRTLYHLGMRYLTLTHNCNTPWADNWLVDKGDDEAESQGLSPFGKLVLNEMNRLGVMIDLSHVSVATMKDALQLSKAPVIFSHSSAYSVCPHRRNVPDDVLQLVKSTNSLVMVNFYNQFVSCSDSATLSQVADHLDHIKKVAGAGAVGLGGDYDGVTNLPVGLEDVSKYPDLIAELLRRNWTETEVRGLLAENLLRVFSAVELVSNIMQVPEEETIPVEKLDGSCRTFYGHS

B1: binds [1].

B2 was tested, and the “membrane dipeptidase enzyme activity (Gly-D-Phe substrate, fluorimetric detection of D-Phe)” value [2] was “LSALT and GFE-1 do not inhibit membrane dipeptidase enzyme activity” and the “membrane dipeptidase enzyme activity (Gly-D-Phe substrate, fluorimetric detection of D-Phe)” value (GFE-1 peptide) was “LSALT and GFE-1 do not inhibit membrane dipeptidase enzyme activity”.

B3: binds [3]; binds [4].

Biotin-LSALTPSPSWLAYKAL (also called #A12; #Al2) [LSALT alanine walk peptide Pos 12 (LSALTPSPSWLAYKAL)]: binds [5].

Biotin-ASALTPSPSWLKYKAL (also called #A1; A1) [LSALT alanine walk peptide Pos 1 (ASALTPSPSWLKYKAL)]: binds [5].

Biotin-LSALTPSPSALKYKAL (also called #A10; A10) [LSALT alanine walk peptide Pos 10 (LSALTPSPSALKYKAL)]: binds [5].

Biotin-LSALAPSPSWLKYKAL (also called #A5; A5) [LSALT alanine walk peptide Pos 5 (LSALAPSPSWLKYKAL)]: binds [5].

HIPKSPIQIPII (also called IPK peptide) [IPK phage hit HIPKSPIQIPII (Ph.D.-12 library)]: binds [6].
